# T1: SORT1 on SORT1 overexpressing cells (Homo sapiens (Human), UniProt Q99523 78-831)
# T1 construct: also called Sortilin overexpressing cells; SORT overexpressing cells
# T1 sequence: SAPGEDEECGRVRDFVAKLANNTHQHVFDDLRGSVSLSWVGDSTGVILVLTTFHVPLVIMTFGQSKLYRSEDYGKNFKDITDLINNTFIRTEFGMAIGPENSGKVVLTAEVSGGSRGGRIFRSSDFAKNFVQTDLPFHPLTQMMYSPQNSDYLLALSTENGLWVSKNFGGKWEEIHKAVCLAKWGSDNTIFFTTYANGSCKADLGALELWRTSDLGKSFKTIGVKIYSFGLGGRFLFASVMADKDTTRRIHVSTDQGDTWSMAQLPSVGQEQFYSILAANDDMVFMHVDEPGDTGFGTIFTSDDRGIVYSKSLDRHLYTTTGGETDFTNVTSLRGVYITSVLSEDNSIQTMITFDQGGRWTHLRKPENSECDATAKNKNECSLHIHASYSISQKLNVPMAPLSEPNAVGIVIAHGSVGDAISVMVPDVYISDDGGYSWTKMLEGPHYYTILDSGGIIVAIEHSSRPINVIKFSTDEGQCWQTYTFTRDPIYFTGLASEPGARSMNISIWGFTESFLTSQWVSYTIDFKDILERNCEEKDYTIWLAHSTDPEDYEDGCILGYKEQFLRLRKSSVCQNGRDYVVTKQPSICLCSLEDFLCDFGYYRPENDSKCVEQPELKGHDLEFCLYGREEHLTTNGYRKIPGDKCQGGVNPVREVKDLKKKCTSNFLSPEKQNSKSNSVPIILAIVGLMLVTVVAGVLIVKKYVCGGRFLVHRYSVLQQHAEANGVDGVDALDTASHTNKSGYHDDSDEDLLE
# T2: recombinant 6xHistidine tagged human SORT1 (human, UniProt Q99523 78-755)
# T2 construct: Captured on the chip by an anti-His mAb; also called SORT1-6xHis; Sortilin-6xHis
# T2 sequence: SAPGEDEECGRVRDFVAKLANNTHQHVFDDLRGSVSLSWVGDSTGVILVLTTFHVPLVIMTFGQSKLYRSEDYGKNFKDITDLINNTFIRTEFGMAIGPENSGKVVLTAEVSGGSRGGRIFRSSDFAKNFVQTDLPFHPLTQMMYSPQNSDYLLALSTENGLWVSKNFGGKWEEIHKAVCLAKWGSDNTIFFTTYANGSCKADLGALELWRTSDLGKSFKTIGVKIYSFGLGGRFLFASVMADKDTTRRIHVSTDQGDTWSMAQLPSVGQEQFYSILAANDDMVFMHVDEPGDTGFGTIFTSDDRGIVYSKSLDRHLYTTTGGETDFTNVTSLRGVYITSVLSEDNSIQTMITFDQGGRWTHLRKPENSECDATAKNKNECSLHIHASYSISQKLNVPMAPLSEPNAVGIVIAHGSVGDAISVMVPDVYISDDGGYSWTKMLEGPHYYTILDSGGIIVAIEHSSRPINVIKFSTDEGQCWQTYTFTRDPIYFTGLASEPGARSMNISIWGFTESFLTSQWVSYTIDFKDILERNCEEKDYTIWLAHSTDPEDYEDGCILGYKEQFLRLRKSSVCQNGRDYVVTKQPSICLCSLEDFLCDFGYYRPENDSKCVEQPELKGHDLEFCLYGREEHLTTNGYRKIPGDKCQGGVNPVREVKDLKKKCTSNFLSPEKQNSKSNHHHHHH
# B1: Naglu-tPRGN fusion protein (enzyme)
# chain: DEAREAAAVRALVARLLGPGPAADFSVSVERALAAKPGLDTYSLGGGGAARVRVRGSTGVAAAAGLHRYLRDFCGCHVAWSGSQLRLPRPLPAVPGELTEATPNRYRYYQNVCTQSYSFVWWDWARWEREIDWMALNGINLALAWSGQEAIWQRVYLALGLTQAEINEFFTGPAFLAWGRMGNLHTWDGPLPPSWHIKQLYLQHRVLDQMRSFGMTPVLPAFAGHVPEAVTRVFPQVNVTKMGSWGHFNCSYSCSFLLAPEDPIFPIIGSLFLRELIKEFGTDHIYGADTFNEMQPPSSEPSYLAAATTAVYEAMTAVDTEAVWLLQGWLFQHQPQFWGPAQIRAVLGAVPRGRLLVLDLFAESQPVYTRTASFQGQPFIWCMLHNFGGNHGLFGALEAVNGGPEAARLFPNSTMVGTGMAPEGISQNEVVYSLMAELGWRKDPVPDLAAWVTSFAARRYGVSHPDAGAAWRLLLRSVYNCSGEACRGHNRSPLVRRPSLQMNTSIWYNRSDVFEAWRLLLTSAPSLATSPAFRYDLLDLTRQAVQELVSLYYEEARSAYLSKELASLLRAGGVLAYELLPALDEVLASDSRFLLGSWLEQARAAAVSEAEADFYEQNSRYQLTLWGPEGNILDYANKQLAGLVANYYTPRWRLFLEALVDSVAQGIPFQQHQFDKNVFQLEQAFVLSKQRYPSQPRGDTVDLAKKIFLKYYPRWVAGSWGAPGGGGGAAAAAGGGGGGAPGGGGGAAAAAGGGGGGAPGGGGGAAAAAGGGGGGAPTKCLRREAPRWDAPLRDPALRQLL
# notes: also called Naglu-tPGRN
# B2: Naglu-SPP fusion protein (enzyme)
# chain: DEAREAAAVRALVARLLGPGPAADFSVSVERALAAKPGLDTYSLGGGGAARVRVRGSTGVAAAAGLHRYLRDFCGCHVAWSGSQLRLPRPLPAVPGELTEATPNRYRYYQNVCTQSYSFVWWDWARWEREIDWMALNGINLALAWSGQEAIWQRVYLALGLTQAEINEFFTGPAFLAWGRMGNLHTWDGPLPPSWHIKQLYLQHRVLDQMRSFGMTPVLPAFAGHVPEAVTRVFPQVNVTKMGSWGHFNCSYSCSFLLAPEDPIFPIIGSLFLRELIKEFGTDHIYGADTFNEMQPPSSEPSYLAAATTAVYEAMTAVDTEAVWLLQGWLFQHQPQFWGPAQIRAVLGAVPRGRLLVLDLFAESQPVYTRTASFQGQPFIWCMLHNFGGNHGLFGALEAVNGGPEAARLFPNSTMVGTGMAPEGISQNEVVYSLMAELGWRKDPVPDLAAWVTSFAARRYGVSHPDAGAAWRLLLRSVYNCSGEACRGHNRSPLVRRPSLQMNTSIWYNRSDVFEAWRLLLTSAPSLATSPAFRYDLLDLTRQAVQELVSLYYEEARSAYLSKELASLLRAGGVLAYELLPALDEVLASDSRFLLGSWLEQARAAAVSEAEADFYEQNSRYQLTLWGPEGNILDYANKQLAGLVANYYTPRWRLFLEALVDSVAQGIPFQQHQFDKNVFQLEQAFVLSKQRYPSQPRGDTVDLAKKIFLKYYPRWVAGSWGAPGGGGGAAAAAGGGGGGAPGGGGGAAAAAGGGGGGAPGGGGGAAAAAGGGGGGAPQDRLDAPPPPAAPLPRWSGPIGVSWGLRAAAAGGAFPRGGRWRR
# Assays:
# [1] = biological target: T1, SORT1 on SORT1 overexpressing cells; experiment: binding/uptake assay on SORT1 overexpressing cells; intracellular Naglu activity against fusion protein concentration; cellular uptake assay on SORT1 overexpressing cells, read as intracellular Naglu activity
# Description: A cell line was established overexpressing SORT1, using standard technologies known in the art. […] After a specified period of time, the supernatant was removed and the cells were washed repeatedly. Then, cells were lysed and each sample was assayed for Naglu enzyme activity.
# [2] = biological target: T1, SORT1 on SORT1 overexpressing cells; experiment: cell-based or functional assay
# [3] = biological target: T2, recombinant 6xHistidine tagged human …; experiment: SPR; SORT1-6xHis captured by anti-His mAb, Naglu-SPP as analyte 0-20 nM
# Description: (§1) Briefly, anti-His mAb (capturing molecule) was diluted in immobilization buffer and bound on the dextran surface of a SPR sensor chip housed in a microfluidic system. […] As the solution moved over the SPR sensor chip, the analyte bound to the capture complex and an increase in SPR signal (expressed in response units, RU) was observed. Finally, a solution without analyte was injected into the microfluidic device to detach bound […] from the capture complex, resulting in a decrease in SPR signal. The detailed experimental conditions are described in Table 6 below.
# [4] = biological target: T2, recombinant 6xHistidine tagged human …; experiment: SPR; SORT1-6xHis captured on anti-His mAb, Naglu-SPP 0.625-20 nM as analyte; value from the fit table under the sensorgrams
# Description: as §1
Binder,Kd [1] [nM],Kd (cellular uptake: Naglu activity in lysates of SORT1 overexpressing cells) [A] [2] [nM],Kd [3] [nM],koff [3] [s⁻¹],kon [3] [M⁻¹ s⁻¹],Kd [4] [nM],koff [4] [s⁻¹],kon [4] [M⁻¹ s⁻¹]
B1,392,–,–,–,–,–,–,–
B2,155,155,~0.66,~0.00071,~1.1e+06,0.663,0.000708,1.07e+06

# Source: US20170246263A1 (SHIRE HUMAN GENETIC THERAPIES, published 2017)
